Data reported in patent publication US20240336680A1.
Where a chain is given by its changes, count along the chain named.

B1: Chimeric T252S4 H/L (antibody, human IgG1, V domains shown)
VH: EVQLQQSGPELVKPGASMKISCKASGYSFTGYNMNWVKQTHGKNLEWIGLINPYNGGTRYNQKFKGKATLTVDKSSSTAYMELLSLTSEDSAVYFCARMGLGNAMDYWGQGTSVTVSS
VL: DIVMTQSPSSLTVTAGEKVTMSCKSSQNLLNSGNQKNYLTWYQQKPGQPPKLLIYWASTMESGVPDRFTGSGSGTDFTLTISSVQAEDLAVYYCQNDYIYPLPFGAGTKLELK
B2: HuT252S4 H3/L1 (antibody, V domains shown)
VH: EVQLVQSGAEVKKPGESLKISCKGSGYSFTGYNMNWVRQMPGKNLEWIGLINPYNGGTRYNQKFKGKATLSVDKSISTAYLQWSSLKASDTAMYFCARMGLGNAMDYWGQGTTVTVSS
VL: DIVMTQSPDSLAVSLGERATINCKSSQNLLNSGNQKNYLTWYQQKPGQPPKLLIYWASTMESGVPDRFSGSGSGTDFTLTISSLQAEDVAVYYCQNDYIYPLPFGQGTKLEIK
B3: HuT252S4 H3/L2 (antibody, V domains shown)
VH: B2 VH
VL: B2 VL with N31Q, M60R

Legend:
[1] = target: human CLDN18.2 (isoform 2 of claudin-18), full length, expressed on CHO cells (human) (UniProt P56856); assay: FACS, serial dilutions on CHO cells expressing human CLDN18.2
[2] = target: human CLDN18.2 (isoform 2 of claudin-18), full length, expressed on CHO cells (human) (UniProt P56856); assay: FACS titration on CHO/CLDN18.2 cells, 0.00001 to 100 ug/mL

| Binder | EC50 [1] [µg/mL] | EC50 (read off the curve) [2] [µg/mL] |
| --- | --- | --- |
| B1 | 1 |  |
| B2 |  | 1 |
| B3 |  | 1 |
